For 14 molecules, Kd, koff and kon results are on record in patent publication US20130251724A1 (GlaxoSmithKline, published 2013).

Sequences and labels used below:
B1: Humanised 10G8 H0 IGHV3_7 + L1 IGKV4_1 (antibody, V domains shown)
VH: EVQLVESGGGLVQPGGSLRLSCAASGFTFSSYWMSWVRQAPGKGLEWVATISDGGSFTYYLDNVRGRFTISRDNAKNSLYLQMNSLRAEDTAVYYCARDVGHTTFWYFDVWGRGTLVTVSS
VL: DIVMTQSPDSLAVSLGERATINCRASKSVSAAGYNFMHWYQQKPGQPPKVLIYWASTRESGVPDRFSGSGSGTDFTLTISSLQAEDVAVYYCLHSREFPFTFGGGTKVEIK
notes: built from the stated CDR exchanges; residue limits derived by me
B2: Humanised 10G8 H0 + L1 IGKV1_5 (antibody, V domains shown)
VH: EVQLVESGGGLVQPGGSLRLSCAASGFTFSNYAMSWVRQAPGKGLEWVATISDGGSFTYYLDNVRGRFTISRDNAKNSLYLQMNSLRAEDTAVYYCARDVGHTTFWYFDVWGRGTLVTVSS
VL: DIVMTQSPDSLAVSLGERATINCRASKSVSAAGYNFMHWYQQKPGQPPKVLIYKASSLESGVPDRFSGSGSGTDFTLTISSLQAEDVAVYYCLHSREFPFTFGGGTKVEIK
notes: built from the stated exchange of CDRL2; residue limits derived by me; Human gamma 1/kappa constant regions
B3: Pos 100D Ala (antibody, V domains shown)
VH: EVQLVESGGGLVQPGGSLRLSCAASGFTFSSYAMSWVRQAPGKGLEWVATISDGGSFTYYLDNVRGRFTISRDNAKNSLYLQMNSLRAEDTAVYYCARDVGHTTFWYADVWGRGTLVTVSS
VL: DIVMTQSPDSLAVSLGERATINCRASKSVSAAGYNFMHWYQQKPGQPPKVLIYYASNLESGVPDRFSGSGSGTDFTLTISSLQAEDVAVYYCLHSREFPFTFGGGTKVEIKR
notes: also called CDRH3 F100D>A
B4: Pos 102 Gly (antibody, V domains shown)
VH: EVQLVESGGGLVQPGGSLRLSCAASGFTFSSYAMSWVRQAPGKGLEWVATISDGGSFTYYLDNVRGRFTISRDNAKNSLYLQMNSLRAEDTAVYYCARDVGHTTFWYFDGWGRGTLVTVSS
VL: DIVMTQSPDSLAVSLGERATINCRASKSVSAAGYNFMHWYQQKPGQPPKVLIYYASNLESGVPDRFSGSGSGTDFTLTISSLQAEDVAVYYCLHSREFPFTFGGGTKVEIKR
notes: also called CDRH3 V102>G
B5: Pos 102 Leu (antibody, V domains shown)
VH: EVQLVESGGGLVQPGGSLRLSCAASGFTFSSYAMSWVRQAPGKGLEWVATISDGGSFTYYLDNVRGRFTISRDNAKNSLYLQMNSLRAEDTAVYYCARDVGHTTFWYFDLWGRGTLVTVSS
VL: DIVMTQSPDSLAVSLGERATINCRASKSVSAAGYNFMHWYQQKPGQPPKVLIYYASNLESGVPDRFSGSGSGTDFTLTISSLQAEDVAVYYCLHSREFPFTFGGGTKVEIKR
notes: also called CDRH3 V102>L
B6: Pos 101 Glu (antibody, V domains shown)
VH: EVQLVESGGGLVQPGGSLRLSCAASGFTFSSYAMSWVRQAPGKGLEWVATISDGGSFTYYLDNVRGRFTISRDNAKNSLYLQMNSLRAEDTAVYYCARDVGHTTFWYFEVWGRGTLVTVSS
VL: DIVMTQSPDSLAVSLGERATINCRASKSVSAAGYNFMHWYQQKPGQPPKVLIYYASNLESGVPDRFSGSGSGTDFTLTISSLQAEDVAVYYCLHSREFPFTFGGGTKVEIKR
notes: also called CDRH3 D101>E
B7: Pos 102 Pro (antibody, V domains shown)
VH: EVQLVESGGGLVQPGGSLRLSCAASGFTFSSYAMSWVRQAPGKGLEWVATISDGGSFTYYLDNVRGRFTISRDNAKNSLYLQMNSLRAEDTAVYYCARDVGHTTFWYFDPWGRGTLVTVSS
VL: DIVMTQSPDSLAVSLGERATINCRASKSVSAAGYNFMHWYQQKPGQPPKVLIYYASNLESGVPDRFSGSGSGTDFTLTISSLQAEDVAVYYCLHSREFPFTFGGGTKVEIKR
notes: also called CDRH3 V102>P
B8: Pos 102 Ala (antibody, V domains shown)
VH: EVQLVESGGGLVQPGGSLRLSCAASGFTFSSYAMSWVRQAPGKGLEWVATISDGGSFTYYLDNVRGRFTISRDNAKNSLYLQMNSLRAEDTAVYYCARDVGHTTFWYFDAWGRGTLVTVSS
VL: DIVMTQSPDSLAVSLGERATINCRASKSVSAAGYNFMHWYQQKPGQPPKVLIYYASNLESGVPDRFSGSGSGTDFTLTISSLQAEDVAVYYCLHSREFPFTFGGGTKVEIKR
notes: also called CDRH3 V102>A
B9: Pos 102 Phe (antibody, V domains shown)
VH: EVQLVESGGGLVQPGGSLRLSCAASGFTFSSYAMSWVRQAPGKGLEWVATISDGGSFTYYLDNVRGRFTISRDNAKNSLYLQMNSLRAEDTAVYYCARDVGHTTFWYFDFWGRGTLVTVSS
VL: DIVMTQSPDSLAVSLGERATINCRASKSVSAAGYNFMHWYQQKPGQPPKVLIYYASNLESGVPDRFSGSGSGTDFTLTISSLQAEDVAVYYCLHSREFPFTFGGGTKVEIKR
notes: also called CDRH3 V102>F
B10: Pos 100D Asp (antibody, V domains shown)
VH: EVQLVESGGGLVQPGGSLRLSCAASGFTFSSYAMSWVRQAPGKGLEWVATISDGGSFTYYLDNVRGRFTISRDNAKNSLYLQMNSLRAEDTAVYYCARDVGHTTFWYDDVWGRGTLVTVSS
VL: DIVMTQSPDSLAVSLGERATINCRASKSVSAAGYNFMHWYQQKPGQPPKVLIYYASNLESGVPDRFSGSGSGTDFTLTISSLQAEDVAVYYCLHSREFPFTFGGGTKVEIKR
notes: also called CDRH3 F100D>D
B11: Pos 100D Glu (antibody, V domains shown)
VH: EVQLVESGGGLVQPGGSLRLSCAASGFTFSSYAMSWVRQAPGKGLEWVATISDGGSFTYYLDNVRGRFTISRDNAKNSLYLQMNSLRAEDTAVYYCARDVGHTTFWYEDVWGRGTLVTVSS
VL: DIVMTQSPDSLAVSLGERATINCRASKSVSAAGYNFMHWYQQKPGQPPKVLIYYASNLESGVPDRFSGSGSGTDFTLTISSLQAEDVAVYYCLHSREFPFTFGGGTKVEIKR
notes: also called CDRH3 F100D>E
B12: Pos 102 Gln (antibody, V domains shown)
VH: EVQLVESGGGLVQPGGSLRLSCAASGFTFSSYAMSWVRQAPGKGLEWVATISDGGSFTYYLDNVRGRFTISRDNAKNSLYLQMNSLRAEDTAVYYCARDVGHTTFWYFDQWGRGTLVTVSS
VL: DIVMTQSPDSLAVSLGERATINCRASKSVSAAGYNFMHWYQQKPGQPPKVLIYYASNLESGVPDRFSGSGSGTDFTLTISSLQAEDVAVYYCLHSREFPFTFGGGTKVEIKR
notes: also called CDRH3 V102>Q
B13: Pos 100D Gly (antibody, V domains shown)
VH: EVQLVESGGGLVQPGGSLRLSCAASGFTFSSYAMSWVRQAPGKGLEWVATISDGGSFTYYLDNVRGRFTISRDNAKNSLYLQMNSLRAEDTAVYYCARDVGHTTFWYGDVWGRGTLVTVSS
VL: DIVMTQSPDSLAVSLGERATINCRASKSVSAAGYNFMHWYQQKPGQPPKVLIYYASNLESGVPDRFSGSGSGTDFTLTISSLQAEDVAVYYCLHSREFPFTFGGGTKVEIKR
notes: also called CDRH3 F100D>G
B14: Pos 101 Gly (antibody, V domains shown)
VH: EVQLVESGGGLVQPGGSLRLSCAASGFTFSSYAMSWVRQAPGKGLEWVATISDGGSFTYYLDNVRGRFTISRDNAKNSLYLQMNSLRAEDTAVYYCARDVGHTTFWYFGVWGRGTLVTVSS
VL: DIVMTQSPDSLAVSLGERATINCRASKSVSAAGYNFMHWYQQKPGQPPKVLIYYASNLESGVPDRFSGSGSGTDFTLTISSLQAEDVAVYYCLHSREFPFTFGGGTKVEIKR
notes: also called CDRH3 D101>G

The target in one assay is T1, Human OSM (human, UniProt P13725 26-221).
T1 construct: Recombinant human OSM; also called hOSM; human Oncostatin M
T1 sequence: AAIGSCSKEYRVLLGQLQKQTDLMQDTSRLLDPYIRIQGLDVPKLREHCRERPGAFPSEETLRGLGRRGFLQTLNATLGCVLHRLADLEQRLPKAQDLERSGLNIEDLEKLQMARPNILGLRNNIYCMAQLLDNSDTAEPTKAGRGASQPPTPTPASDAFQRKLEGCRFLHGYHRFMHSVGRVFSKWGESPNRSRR
In words: BIAcore kinetics, transfection supernatant. On the technique in general: In SPR one partner is held on a chip, and binding of the other changes the refractive index at the surface.
Molecule B1 returned a Kd of 44.4 nM, a koff of 0.00163 s⁻¹ and a kon of 36800 M⁻¹ s⁻¹.

Consider B2, for which the Kd was 9.33 nM, the koff turned out to be 0.00064 s⁻¹ and the kon is 68700 M⁻¹ s⁻¹.

In a further assay the target is T2, Cynomolgus OSM (cynomolgus, UniProt A0A2K5VPC6 26-221).
T2 construct: also called Cyno OSM; cynomolgus macaque OSM
T2 sequence: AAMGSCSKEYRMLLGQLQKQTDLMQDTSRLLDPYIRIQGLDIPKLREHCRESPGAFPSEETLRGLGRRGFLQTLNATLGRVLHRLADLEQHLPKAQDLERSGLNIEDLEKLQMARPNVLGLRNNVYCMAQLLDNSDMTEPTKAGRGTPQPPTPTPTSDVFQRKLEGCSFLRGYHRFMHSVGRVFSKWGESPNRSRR
In words: BIAcore kinetics, transfection supernatant.
The molecule B1 displayed a dissociation constant (Kd) of 34.9 nM, a koff of 0.00177 s⁻¹ and an on-rate constant (kon) of 50700 M⁻¹ s⁻¹.

B2 yielded an equilibrium dissociation constant (Kd) of 8.26 nM, a koff of 0.000557 s⁻¹ and a kon of 67500 M⁻¹ s⁻¹.

Another assay has as its target T1, Human OSM. In words: SPR (ProteOn XPR36 or Biacore T100), captured supernatant, OSM as analyte. The protocol:
The initial kinetic analyses for the CDRH3 screen were carried out on the ProteOn XPR36 (Biorad Laboratories) and certain supernatants were selected for more accurate kinetic analysis on the BiaCore T100.
For the ProteOn analysis, anti-human IgG (GE Healthcare/Biacore BR-1008-39) was coupled to a GLM chip (Biorad Laboratories 176-5012) by primary amine coupling. The CDRH3 variants were captured directly on to this surface and recombinant human OSM was passed over the captured antibody surface at 256, 64, 16, 4 and 1 nM, with a buffer injection alone (i.e. 0 nM) used to double reference the binding curves. Following the OSM binding event, the capture surfaces were regenerated: with 3M MgCl₂ the regeneration removed the previously captured antibody ready for another cycle of capture and binding analysis. The data was then fitted to the 1:1 model (with mass transport) inherent to the ProteOn analysis software. The run was carried out using HBS-EP (Biacore/GE-Healthcare BR-1006-69) and the analysis temperature was 25° C.
A similar method was used for analysis of constructs using the Biacore T100, anti-human IgG (GE Healthcare/Biacore BR-1008-39) was coupled to a CM5 chip (GE Healthcare/Biacore BR-1006-68) by primary amine coupling, antibodies were captured on this surface and recombinant human OSM was passed over the captured antibody surface at 256, 64, 16, 4 and 1 nM, with a buffer injection alone (i.e. 0 nM) used to double reference the binding curves. Regeneration was by using pulses of 3M 3M MgCl₂ or 100 mM phosphoric acid or using both reagents. The data was fitted to the 1:1 model inherent to the Biacore T100 analysis software. The run was carried out using HBS-EP (Biacore/GE-Healthcare BR-1006-69) and the analysis temperature was 25° C.
With B3, the equilibrium dissociation constant (Kd) came out at 0.869 nM.

Consider B4, for which the dissociation constant (Kd) was found to be 0.406 nM.

Consider B5, for which the Kd was 0.426 nM.

On to B6, for which the Kd was determined as 0.426 nM.

As for B7, the Kd worked out at 0.411 nM.

B8 came in with a dissociation constant (Kd) of 0.338 nM.

With B9, the dissociation constant Kd turned out to be 0.425 nM.

Molecule B10 returned a Kd of 0.672 nM.

In turn, B11 came in with a Kd of 0.688 nM.

B12 yielded a Kd of 0.337 nM.

Turning to B13, the Kd was 0.661 nM.

On to B14, for which the Kd came out at 0.71 nM.

A word on the Kd: it is the constant that tells how readily two partners part at equilibrium. A high value points to lower affinity. As usually defined, the koff is a measure of how fast the partners let go of each other. Higher therefore signals fast dissociation. Broadly, the kon is a measure of how fast the partners come together.
